Experimental data reported in the DeepSol protein solubility set.

Test: soluble on expression in E. coli; label from the status in PepcDB or PDB records

| Sequence | soluble on expression in E. coli |
| --- | --- |
| MGSDKIHHHHHHMGVQETKIYPINTGWLEADLGTYIFWKGPAGQKIWNPVYCHYVDTGTHKILIDTGLCDEERATKYHHKCDKRGCLQVHEHLEQKLGVHPDEIDAVVFTHLHWDHVQNMKEFKNARYIAPKAEIEMAFNPLPLYYRTYESGYLGIEPAYTGCVFEAVEDECEVLPGITMFHTPGHSVGHMAVTVATSAGDIVVAGDAIFQERNMEPNEAEGWRYWVPARFVNSYEGWKSVEELDKRADYILACHDKVANARSNVFPYEGMPIRKRRQHIPGFKFYFGDMPAGATDKAAPALTADEAKEYLANLVPPTPD | not soluble |
| MSLFARQLQSLTASGIRTQQVRLASTEVSFHTKPCKLHKLDNGPNTSVTLNREDALKYYRDMQVIRRMESAAGNLYKEKKIRGFCHLYSGQEACAVGMKAAMTEGDAVITAYRCHGWTWLLGATVTEVLAELTGRVAGNVHGKGGSMHMYTKNFYGGNGIVGAQQPLGAGVALAMKYREQKNVCVTLYGDGAANQGQLFEATNMAKLWDLPVLFVCENNGFGMGTTAERSSASTEYYTRGDYVPGIWVDGMDILAVREATKWAKEYCDSGKGPLMMEMATYRYHGHSMSDPGTSYRTREEIQEVRKTRDPITGFKDRIITSSLATEEELKAIDKEVRKEVDEALKIATSDGVLPPEALYADIYHNTPAQEIRGATIDETIVQPFKTSADVLKSIGRA | not soluble |
| SPLKFELCPGRMIGGNNPCFIIAEIGQNHQGDIEIAKKMIKMAKDCGADCAKFQKSELEYKFNKKALERPYTSKHSWGKTYGEHKRHLEFSHEQYRELQQYAKQVGIFFTASGMDEMAVEFLHELDVPFFKVGSGDTNNFPYLKKTAQKGRPMVVSSGMQSMETMQHVYKIVKEHNQNFCILQCTSAYPLEPEDVNLRVITEYQKEFPDIPIGYSGHESGINITVGAVALGAKVVERHVTLDKSWKGSDHAASLEPEELAELVRSIRIVERALGTGLKRMLPCEVPCHDKLGKSVVAKTSIPKGTELTLDMLAVKVAEPKGVAPEEIFQLVGKKVTTDVEEDESITEDVVDSYGKKAKA | soluble |
| MSLDTMIASLEQSKKRAEEELSETESIRKEAEKLHKELQQQIIELNSKKDKMLEEAEQQAAEKVKAAMKEAEDIIHELRTIKEEHKSFKDHELINAKKRLEGAMPAFEKSKKPEKPKTQKRDFKPGDEVKVLTFGQKGTLLEKTGGNEWNVQIGILKMKVKEKDLEFIKSAPEPKKEKMITAVKGKDYHVSLELDLRGERYENALSRVEKYLDDAVLAGYPRVSIIHGKGTGALRKGVQDLLKNHRSVKSSRFGEAGEGGSGVTVVELKEGHHHHHH | soluble |
| MGSDKIHHHHHHMIRFENISKQNSHRILFLDSSAALNRGEKIGLVGPNGAGKTTLFRMITGEEVPDAGQVSIEKQVSIGYFNQDVGEMSGRSAVAEVMDGAGPVSSVAAEMAELEAAMCDPDRDDMDAVVERYGEVQARFEELGGYELEGRAREVLAGLSFSQEMMDGDVGALSGGWKMRVALGRILLMRPDAMLLDEPSNHLDIESLIWLEEFLKGYDGALLMTSHDREFLNRIVTKIIEIDGGSLNTYSGDYAFFERQRAQNEKQQQAQFERQQAMLAKEIKFIERFKARASHAAQVQSRVKKLDKIERFEPPRRRQTVSFDFPPAPRSGDDVAVFKSVHKGYGSRAIYQGLDLIIRRKERWCVMGVNGAGKSTLLKLVAGAADPDSGTVTVGASVKMGYFSQHAMELLDGERTVYESLEDRFPQANQGSLRTLAGCFGFSGDDVEKKCRVLSGGEKARLVMAIMLYNPPNFLVLDEPTNHLDLDTKQMLIAALANYEGTMLFVSHDRHFLAALSNRVLELTPEGVHQYSGGYTEYVARTGHEAPGLRS | not soluble |
| MVNFFRLNLSSNQAAAVTVSETAELPEALEQLGLSNSRPVLVIVGGASQTSEADFLRIQSLFVEVLAPIAQSLGAYVVDGGTDAGVMRLMGDARSQINGQFPLIGVAPTAKVILPNQTTILADDATPLEPHHSHFVLIPGSKWGDESPWIVKVATLLANGLPSITVLINGGEISFIDALNSVIAGRLVIVIAGSGRTADKIASALRGYATDERATELAASDHIQTIDLEAAPEELIDTMTNLLLNLEHHHHHH | not soluble |
| MSLLAEKLQINSITPHPSVEYWSVCKVEALFETPFLELVYRATQVHRKHFNPRAIQLSTLMSIKTGGCPEDCSYCPQSARYHTGVQNQQLLDVDEIVAKAKIAKARGAGRFCMGAAWRGPKPKDIEKVTEIIKAVKSLGLETCGTFGLLQDGMAEDLKEAGLDYYNHNLDTAPEHYAEVIGTRRFDDRLSTLGKVRKAGLKVCCGGIVGMNETRKERAGLIASLANLDPQPESVPINQLVKVEGTPLADAEELDWTEFVRTIAVARITMPKSYVRLSAGRSGMTEEMQAMCFMAGANSIFYGDKLLVTDNPEEDGDQLLMAKLDLEPETAENKKLEGHHHHHH | soluble |
| MKTLTTERLILRLVSVDDAPFILELYNHPDFYRFVGDKQMRTDYEAVRYIKENMLRMEEKKGVSLLVVEDKQTKQPLGICGLVKRDTLNAYDIGYGFLPSAYGQGFAIEAAKAVIEYAKQAMQLSQLLAITNNDNIRSISLLKKLGFEFEHVEQQYDNGRTLELYTLQL | not soluble |
| MNQNKSNVPVSVAEEPDELSYYRLTLLSFLRESHPDLADDESFVATRSEQAAEAFSAAVRSGLTYDDAAQQANALLFQGLHFSPLDTLVTVLWNEFAAEVPEGSARSVALQLLPECRKVFAGYTLSDDFMFSPEFGQLYDELTGTVVIWLEENGL | not soluble |
| HGDGPGNAVQEIMIPASKAGLVIGKGGETIKQLQERAGVKMVMIQDGPQNTGADKPLRITGDPYKVQQAKEMVLELIRDQG | soluble |
| MMKPSVSAAILAAGTSTRMNEMKQLAKIQGTYMLKYVIDQVSNHPFQHIFVIVGHQADIVMKMIQVEDKRVQWLVNDQYKQGQSTSFKLAMEQARQYGDAVMMFLADQPLIEKETVNIVLNEGITRVQEEPFIVRPMYEKKEGHPVYWGNIHALDCSAVNGDKGGKTLMEELERMLIPVHDQGVLVDVDTCEDYKKVNDLMKRKSPSTHLEHHHHHH | not soluble |
| MSQQGLERRLLAGLQGLGLTINQAQRAVKHFGADALDRLEKDLFTLTEVEGIGFLTADKLWQARGGALDDPRRLTAAAVYALQLAGTQAGHSFLPRSRAEKGVVHYTRVTPGQARLAVETAVELGRLSEDDSPLFAAEAAATGEGRIYLPHVLRAEKKLASLIRTLLATPPADGAGNDDWAVPKKARKGLSEEQASVLDQLAGHRLVVLTGGPGTGKSTTTKAVADLAESLGLEVGLCAPTGKAARRLGEVTGRTASTVHRLLGYGPQGFRHNHLEPAPYDLLIVDEVSMMGDALMLSLLAAVPPGARVLLVGDTDQLPPVDAGLPLLALAQAAPTIKLTQVYRQAAKNPIIQAAHGLLHGEAPAWGDKRLNLTEIEPDGGARRVALMVRELGGPGAVQVLTPMRKGPLGMDHLNYHLQALFNPGEGGVRIAEGEARPGDTVVQTKNDYNNEIFNGTLGMVLKAEGARLTVDFDGNVVELTGAELFNLQLGYALTVHRAQGSEWGTVLGVLHEAHMPMLSRNLVYTALTRARDRFFSAGSASAWQIAAARQREARNTALLERIRAHLEHHHHHH | soluble |
| TETMTVTATGNARSSFEAPMMVSVIDTSAPENQTATSATDLLRHVPGITLDGTGRTNGQDINMRGYDHRGVLVLVDGIRQGTDTGHLNGTFLDPALIKRVEIVRGPSALLYGSGALGGVISYDTVDAKDLLQEGQSSGFRVFGTGGTGDHSLGLGASAFGRTENLDGIVAWSSRDRGDLRQSNGETAPNDESINNMLAKGTWQIDSAQSLSGLVRYYNNDAREPKNPQTVEASESSNPMVDRSTIQRDAQLSYKLAPQGNDWLNADAKIYWSEVRINAQNTGSSGEYREQITKGARLENRSTLFADSFASHLLTYGGEYYRQEQGSHHHHHHHPGGATTGFPQAKIDFSSGWLQDEITLRDLPITLLGGTRYDSYRGSSDGYKDVDADKWSSRAGMTINPTNWLMLFGSYAQAFRAPTMGEMYNDSKHFSIGRFYTNYWVPNPNLRPETNETQEYGFGLRFDDLMLSNDALEFKASYFDTKAKDYISTTVDFAAATTMSYNVPNAKIWGWDVMTKYTTDLFSLDVAYNRTRGKDTDTGEYISSINPDTVTSTLNIPIAHSGFSVGWVGTFADRSTHISSSYSKQPGYGVNDFYVSYQGQQALKGMTTTLVLGNAFDKEYWSPQGIPQDGRNGKIFVSYQW | soluble |
| MTKEEFIKQKEQRKTFLVIAEEEGDSITPISLYRRMKGKKKFLLESSQLHQDKGRYSYLGCNPYGEVKSVGTEVERTIYGRAEKLQSNVLQVLEEIIAPSQVDSPFPFCGGAVGYIGYDVIRQYENIGADLHDPLNIPEVHLLLYREFIVYDHLRQKLSFVYVCREDDSADYEEVYERLRVYKEEVLQGEEAEVTEIRSTLSFTSSITEREFCVMVETAKEHIGAGDIFQVVLSQRLQSECIGDPFALYRKLRIANPSPYMFYIDFQDYVVLGSSPESLLSVREDKVMTNPIAGTRPRGKTKEEDTEIEKELLENEKERAEHMMLVDLGRNDIGRVSEIGSVTIDKYMKVEKYSHVMHIVSEVYGTLRKQMSGFDALAYCLPAGTVSGAPKIRAMEIINELENEKRNVYAGAVGYVSFSGNLDMALAIRTMVVKDEKAYVQAGAGIVYDSDPVAEYEETLNKARALLEVMK | not soluble |
| MSTDLQHIRIGLTNNHPCSYLPERQERVAVALDAELHTEQNYQLLMANGFRRSGDTIYKPHCERCHACQPIRISIPDFVLSRSQKRLLSKAKSLRWEMKTEMDAEWFELYSRYICKRHKNGTMYPPKRDEFSRFAQTTWLTTLFLHIYDESNQLLGVAVTDVMAQCSSAFYTFFEPDYPLSLGTLAVLYQVNYCQQNNEQWLYLGYQIDECPAMNYKTRFQRHQRLVNQRWQGLEHHHHHH | soluble |
| MGSDKIHHHHHHMSTLIRSALLVKFSEIARTLSVDPERMIRHVGADRSCIVSPDLHVPEPWLANVLDASEQASSGAAVGLLMAESWRLSDFGPISLLLQHQPTLRHALGQLETYRHLLSESVLVHVEETDAVAIVRLQLITDRPTPGRQPVELSIGAMLCLMKSMLGGKWKPRSVHFTHGAPANLHVHRRLFGTNVEFGSDFDGIVLDRQDLDRPNPLGDVNLARYAREFLDQHPRGRRISTASNVRRSVHMLLPRGQGSIEQVGQQLGMSARTLQRRLGQEGQEFSSLVNEVRRGLASRYLADLRYPVSQVAMLVGFAEVSTFSRWFSSQFGMPPTRWRTGAEH | not soluble |
| MSKAKIGIVTVSDRASAGIYEDISGKAIIDTLNDYLTSEWEPIYQVIPDEQDVIETTLIKMADEQDCCLIVTTGGTGPAKRDVTPEATEAVCDRMMPGFGELMRAESLKFVPTAILSRQTAGLRGDSLIVNLPGKPKSIRECLDAVFPAIPYCIDLMEGPYLECNEAVIKPFRPKAK | soluble |
| MGSDKIHHHHHHMNTRSDVSKLIAQRKPRHALPRALYSNLAVYQQDLQQLWHKDWIFAGHTFELEKSGQYLSLQIGDYPVAVVRGADGQVRAFHNSCRHRGSKVCPEAKGKVAKLVCPYHKWTFELDGRLLFAGNMGDDFDKSQYNLKPVHCEIVNTYIYVCVAEAAPDFSAFREAVTPFLMPHNLEDCKVAFESNLIEKGNWKLVFENNRECYHCDGTHPELMNSFVENLSVAGVGGSDDPQLTAHWDRCEAAGLPSRLVMDNDGRFRITRIPLSSGAVSYTMDGKPAVAVRLDASGEADIGALLYFNYPSTWNHFLGDHALSFRVLPLGPNETLVTTKWIVKKTAVEGLDYDLDRLTKVWLATNDQDRTLVEGAQVGVNSPAYEPGPFSSKAENGVCQFDDWYCEIMLDRLGDDRAQASIKLKSVG | not soluble |
| MASVHGITVKNAQGEDTPLSNYQGKVLIIVNVASQCGLTNSNYNQFKELLDVYKKDGLEVLAFPCNQFGGQEPSCEIDIAAFVADKFKFEPTLFQKIDVNGDNTAPLYKFLKQEKGGFLVDAIKWNFTKFLVGRDGHVIKRFSPTTEPKDMKKDIEAALQAKL | not soluble |
